Assay results taken from patent US20160339053A1.

Molecular target: recombinant mouse ICAM-1 (mouse) (UniProt P13597)
Experiment: cell-based or functional assay

Chain of UniProt P13597 (P13597 28-485 limits assumed): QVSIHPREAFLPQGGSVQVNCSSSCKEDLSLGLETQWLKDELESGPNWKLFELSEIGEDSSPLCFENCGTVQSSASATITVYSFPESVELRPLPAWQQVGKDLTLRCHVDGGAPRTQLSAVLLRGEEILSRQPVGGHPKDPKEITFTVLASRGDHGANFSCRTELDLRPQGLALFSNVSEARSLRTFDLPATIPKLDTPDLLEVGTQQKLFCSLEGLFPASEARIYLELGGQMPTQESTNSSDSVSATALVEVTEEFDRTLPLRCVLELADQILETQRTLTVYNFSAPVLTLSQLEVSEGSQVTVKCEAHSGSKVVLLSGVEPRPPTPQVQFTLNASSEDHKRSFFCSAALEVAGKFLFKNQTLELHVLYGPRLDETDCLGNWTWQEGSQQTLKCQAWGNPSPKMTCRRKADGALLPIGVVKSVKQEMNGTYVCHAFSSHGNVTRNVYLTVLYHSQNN

## LFA-1 on mouse preactivated CD4+ T cells (from UniProt P24063 24-1162; P11835 24-771) (receptor)
  adhesion of WT preactivated CD4+ T cells to ICAM-1-coated plates (percent of input cells): 10%
  adhesion of WT preactivated CD4+ T cells to ICAM-1-coated plates, fold over basal after CXCL12, CCL21 or anti-CD3: 2 to 5 fold
